# Experimental data: article doi:10.1101/2020.12.03.409334
# Target: 4R1N tau::mCherry::Cry2Olig chimera (UniProt P10636)
# Assay: native gel or EMSA
substance,measurement,value
4R1N tau::mCherry::Cry2Olig chimera (from UniProt P10636-7 1-412),stoichiometry N,2
